In patent US7819908B2, “Compositions and methods for reducing lung volume” (Aeris Therapeutics, Inc., priority 2002, dated 2010):

System: sheep
Assay: Papain-induced emphysema in sheep: lung physiology, plethysmography, CT
Type: in vivo
From the text: We examined the safety and utility of trypsin preconditioning for BVR in a group of seven sheep with emphysema generated by prior exposure to papain inhalation. This large animal model of emphysema is one with which we have extensive prior experience.

[1] = papain-induced emphysema, Campbell diagram

B1: papain: enzyme given by inhalation or instilled bronchoscopically to sheep to generate the emphysema model (protein, UniProt P00784 134-345, looked up)
Papain: IPEYVDWRQKGAVTPVKNQGSCGSCWAFSAVVTIEGIIKIRTGNLNEYSEQELLDCDRRSYGCNGGYPWSALQLVAQYGIHYRNTYPYEGVQRYCRSREKGPYAAKTDGVRQVQPYNEGALLYSIANQPVSVVLEAAGKDFQLYRGGIFVGPCGNKVDHAVAAVGYGPNYILIKNSWGTGWGENGYIRIKRGTGNSYGVCGLYTSSFYPVKN
- tissue density in Houndsfield units measured by CT scanning (2 weeks following serial papain exposure): significant decrease
- recoil pressures at full inflation (after papain-induced emphysema, baseline 16.4 cm H2O): 8.9 cm H2O
- change in TLC and RV [1]: significant increase
- impact on active or passive chest wall mechanics [1]: no significant impact
- lung volume measured by plethysmography (papain-treated vs untreated, 2 weeks after serial papain exposure): significant increase
- increase in airway resistance (post-papain vs baseline): 75±16%
- residual volume (RV) increased (post-papain vs baseline): 66±21%
- total lung capacity (TLC) increased (post-papain vs baseline): 10±3%
- vital capacity (VC) increased (post-papain vs baseline): 11±4%
- increase in total lung resistance (sum of airway and tissue components) (post-papain vs baseline, normal respiratory frequencies): 40±9%
